# B1: Bag6 minimal TRC35-binding domain containing the NLS (residues 1000-1054) (domain or fragment)
# chain: ETEPWAAAVPPEWVPIIQQDIQSQRKVKPQPPLSDAYLSGMPAKRRKTMQGEGPQ
# Target: TRC35 (residues 23 to 305) (human, UniProt Q7L5D6 23-305)
# Experiment: crystal structure
# TRC35 (residues 23 to 305), sequence (Q7L5D6 23-305): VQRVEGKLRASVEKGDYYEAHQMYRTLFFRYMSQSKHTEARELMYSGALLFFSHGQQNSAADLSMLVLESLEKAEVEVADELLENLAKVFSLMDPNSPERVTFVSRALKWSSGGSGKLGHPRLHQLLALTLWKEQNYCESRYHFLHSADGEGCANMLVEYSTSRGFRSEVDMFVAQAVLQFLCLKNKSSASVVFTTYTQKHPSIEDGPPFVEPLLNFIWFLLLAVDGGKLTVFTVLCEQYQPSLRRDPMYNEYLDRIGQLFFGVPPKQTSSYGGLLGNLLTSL
binder,measurement,value
B1,binding result,binds

# — paper doi:10.1101/154351 (bioRxiv, 2017)
